One may read the stoichiometry N as the number of molecules, sites or subunits per partner or assembly.

The target of data set [1] is D. radiodurans PNPase lacking the S1 domain (D. radiodurans) (UniProt Q9RSR1). As to the kind of experiment: native gel or EMSA + other: negative stain electron microscopy. For orientation: A gel shift assay detects complexes by their altered migration in electrophoresis.
In data set [2] the target is D. radiodurans PNPase lacking the KH domain (D. radiodurans) (UniProt Q9RSR1). The data set is described as above.
Data set [3] concerns the molecule itself. In words: glycerol gradient sedimentation.

Take “D. radiodurans PNPase lacking the S1 domain (from UniProt Q9RSR1 1-779) (enzyme)”: the stoichiometry N in data set [1] amounted to 3.

Take “D. radiodurans PNPase lacking the KH domain (from UniProt Q9RSR1 1-779) (enzyme)”: the stoichiometry N in data set [2] came to 3.

B1: Salmonella Typhimurium PNPase fused to 3 copies of FLAG (FLAG3-pnp) (enzyme, S. Typhimurium, UniProt Q8ZLT3 1-711, looked up)
chain: MLNPIVRKFQYGQHTVTLETGMMARQATAAVMVSMDDTAVFVTVVGQKKAKPGQDFFPLTVNYQERTYAAGRIPGSFFRREGRPSEGETLIARLIDRPVRPLFPEGFVNEVQVIATVVSVNPQVNPDIVAMIGASAALSLSGIPFNGPIGAARVGYINDQYVLNPTQDELKESKLDLVVAGTEAAVLMVESEAELLSEDTMLGAVVFGHEQQQVVIQAINDLVKEAGKPRWDWQPEAVNDALNARVAALAESRLSDAYRITDKQERYAQVDVIKSETIEQLIAEDETLDANELGEILHAIEKNVVRSRVLAGEPRIDGREKDMIRGLDVRTGVLPRTHGSALFTRGETQALVTATLGTARDAQVLDELMGERTDSFLFHYNFPPYSVGETGMVGSPKRREIGHGRLAKRGVLAVMPDMDKFPYTVRVVSEITESNGSSSMASVCGASLALMDAGVPIKAAVAGIAMGLVKEGDNYVVLSDILGDEDHLGDMDFKVAGSRDGISALQMDIKIEGITKEIMQVALNQAKGARLHILGVMEQAINAPRGDISEFAPRIHTIKISTDKIKDVIGKGGSVIRALTEETGTTIEIEDDGTVKIAATDGEKAKYAIRRIEEITAEIEVGRIYNGKVTRIVDFGAFVAIGGGKEGLVHISQIADKRVEKVTDYLQMGQEVPVKVLEVDRQGRVRLSIKEATEQSQPAAAPEAPASEQAE
B1: the “stoichiometry N” value in data set [3] is 3.

Source of the values: publication PMC3646564 (Cell, 2013).
